Reference: the supplement of paper PMC9112550, “Optimization of the antimicrobial peptide Bac7 by deep mutational scanning” (BMC Biology, 2022)

Test system: Escherichia coli TOP10
Assay: shrunken log2 fold change of peptide-encoding DNA abundance (4.5 h post-induction vs induction); higher = less antimicrobial activity (less host growth inhibition)
Settings: time post-induction: 4.5 h; library: site-saturation at positions 5, 18, 19, 20
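Also: peptides expressed intracellularly from a pBAD plasmid library in pooled LB shake-flask culture, induced with 0.3% L-arabinose, DNA abundance read by NGS, three biological replicates, DESeq2 with apeglm shrinkage.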

| Sequence | shrunken log2 fold change |
| --- | --- |
| RRIRGRPPRLPRPRPRPWRTPRP | -0.0149 |
| RRIRLRPPRLPRPRPRPMMKPRP | -0.0811 |
| RRIRFRPPRLPRPRPRPHNVPRP | 0.0631 |
| RRIRNRPPRLPRPRPRPQTNPRP | -0.276 |
| RRIRSRPPRLPRPRPRPCWEPRP | 0.311 |
| RRIRVRPPRLPRPRPRPRWEPRP | 0.329 |
| RRIRIRPPRLPRPRPRPWMFPRP | -0.261 |
| RRIRVRPPRLPRPRPRPGMHPRP | -0.00805 |
| RRIRARPPRLPRPRPRPMGTPRP | 0.304 |
| RRIRRRPPRLPRPRPRPWPMPRP | -0.157 |
| RRIRERPPRLPRPRPRPLFEPRP | -0.0266 |
| RRIRIRPPRLPRPRPRPWCEPRP | -0.639 |
| RRIRPRPPRLPRPRPRPDNCPRP | -0.197 |
| RRIRARPPRLPRPRPRPHGRPRP | 0.0226 |
| RRIRLRPPRLPRPRPRPDWQPRP | -0.0564 |
| RRIRPRPPRLPRPRPRPTCGPRP | -0.0302 |
| RRIRKRPPRLPRPRPRPHHQPRP | 0.00598 |
| RRIRVRPPRLPRPRPRPFTWPRP | -0.327 |
| RRIRMRPPRLPRPRPRPSFAPRP | 0.301 |
| RRIRERPPRLPRPRPRPCSKPRP | 0.2 |
| RRIRDRPPRLPRPRPRPFMTPRP | -0.185 |
| RRIRWRPPRLPRPRPRPELRPRP | 0.0333 |
| RRIRFRPPRLPRPRPRPFTSPRP | -0.316 |
| RRIRCRPPRLPRPRPRPYQEPRP | -0.276 |
| RRIRMRPPRLPRPRPRPMHEPRP | 3.07 |

| Sequence | shrunken log2 fold change |
| --- | --- |
| RRIRARPPRLPRPRPRPPPSPRP | 1.26 |
| RRIRHRPPRLPRPRPRPKAKPRP | 0.00599 |
| RRIRTRPPRLPRPRPRPWWLPRP | 0.125 |
| RRIRRRPPRLPRPRPRPWLQPRP | 0.0763 |
| RRIRARPPRLPRPRPRPKHWPRP | 0.593 |
| RRIRPRPPRLPRPRPRPHSEPRP | -0.0259 |
| RRIRDRPPRLPRPRPRPLERPRP | 0.464 |
| RRIRQRPPRLPRPRPRPNVLPRP | -0.0544 |
| RRIRRRPPRLPRPRPRPSASPRP | 0.101 |
| RRIRMRPPRLPRPRPRPDTVPRP | 0.00533 |
| RRIRFRPPRLPRPRPRPCGWPRP | 0.42 |
| RRIRGRPPRLPRPRPRPCSAPRP | 1.58 |
| RRIRLRPPRLPRPRPRPMILPRP | -0.677 |
| RRIRCRPPRLPRPRPRPNAAPRP | 0.975 |
| RRIRFRPPRLPRPRPRPHSKPRP | -0.327 |
| RRIRIRPPRLPRPRPRPETSPRP | -0.239 |
| RRIRCRPPRLPRPRPRPAMDPRP | -0.207 |
| RRIRLRPPRLPRPRPRPECDPRP | -0.00082 |
| RRIRDRPPRLPRPRPRPFSDPRP | -0.016 |
| RRIRIRPPRLPRPRPRPWSDPRP | -0.0344 |
| RRIRERPPRLPRPRPRPREFPRP | -0.0736 |
| RRIRHRPPRLPRPRPRPSVIPRP | -0.369 |
| RRIRFRPPRLPRPRPRPNQFPRP | -0.0599 |
| RRIRVRPPRLPRPRPRPQPNPRP | -0.125 |
| RRIRVRPPRLPRPRPRPNSYPRP | -0.309 |

| Sequence | shrunken log2 fold change |
| --- | --- |
| RRIRPRPPRLPRPRPRPEKSPRP | 0.264 |
| RRIRQRPPRLPRPRPRPKWQPRP | 0.0435 |
| RRIRTRPPRLPRPRPRPGQVPRP | -0.0192 |
| RRIRERPPRLPRPRPRPNVTPRP | -0.199 |
| RRIRKRPPRLPRPRPRPVLFPRP | 0.327 |
| RRIRLRPPRLPRPRPRPTCVPRP | 0.0314 |
| RRIRNRPPRLPRPRPRPMPAPRP | -0.142 |
| RRIRKRPPRLPRPRPRPRAMPRP | -0.107 |
| RRIRMRPPRLPRPRPRPNPFPRP | 0.211 |
| RRIRHRPPRLPRPRPRPCIGPRP | -0.58 |
| RRIRWRPPRLPRPRPRPTGMPRP | 0.117 |
| RRIRTRPPRLPRPRPRPSKTPRP | 0.0543 |
| RRIRKRPPRLPRPRPRPFLSPRP | -0.0256 |
| RRIRPRPPRLPRPRPRPLGSPRP | -0.0459 |
| RRIRLRPPRLPRPRPRPKRMPRP | -0.029 |
| RRIRERPPRLPRPRPRPGWRPRP | 0.0971 |
| RRIRVRPPRLPRPRPRPHWYPRP | -0.463 |
| RRIRIRPPRLPRPRPRPTLLPRP | -0.374 |
| RRIRGRPPRLPRPRPRPESHPRP | 0.124 |
| RRIRDRPPRLPRPRPRPGYFPRP | -1.25 |
| RRIRCRPPRLPRPRPRPPVPPRP | 0.587 |
| RRIRSRPPRLPRPRPRPSANPRP | -0.0142 |
| RRIRMRPPRLPRPRPRPHQVPRP | 0.423 |
| RRIRTRPPRLPRPRPRPPDHPRP | 0.112 |
| RRIRIRPPRLPRPRPRPCQKPRP | -0.0157 |

| Sequence | shrunken log2 fold change |
| --- | --- |
| RRIRVRPPRLPRPRPRPTHPPRP | 0.378 |
| RRIRWRPPRLPRPRPRPWRYPRP | -0.262 |
| RRIRLRPPRLPRPRPRPTEGPRP | 0.166 |
| RRIRARPPRLPRPRPRPGMVPRP | 0.509 |
| RRIRRRPPRLPRPRPRPGAFPRP | 0.539 |
| RRIRIRPPRLPRPRPRPNMRPRP | -0.374 |
| RRIRLRPPRLPRPRPRPVIKPRP | -0.111 |
| RRIRIRPPRLPRPRPRPPDGPRP | 1.84 |
| RRIRNRPPRLPRPRPRPMRRPRP | -0.0657 |
| RRIRDRPPRLPRPRPRPGQHPRP | -0.121 |
| RRIRRRPPRLPRPRPRPTGDPRP | 0.0418 |
| RRIRLRPPRLPRPRPRPYDGPRP | 0.0118 |
| RRIRYRPPRLPRPRPRPLFSPRP | -0.673 |
| RRIRRRPPRLPRPRPRPFATPRP | 0.814 |
| RRIRYRPPRLPRPRPRPQLIPRP | -0.3 |
| RRIRKRPPRLPRPRPRPWGMPRP | 0.142 |
| RRIRGRPPRLPRPRPRPTYEPRP | 0.318 |
| RRIRIRPPRLPRPRPRPYMCPRP | -0.318 |
| RRIRMRPPRLPRPRPRPEMIPRP | 2.2 |
| RRIRPRPPRLPRPRPRPIKWPRP | 0.0716 |
| RRIRMRPPRLPRPRPRPFFGPRP | -0.0869 |
| RRIRERPPRLPRPRPRPFVAPRP | 0.0108 |
| RRIRERPPRLPRPRPRPKQDPRP | -0.252 |
| RRIRERPPRLPRPRPRPPRKPRP | 0.387 |
| RRIRYRPPRLPRPRPRPMTEPRP | -0.0202 |

| Sequence | shrunken log2 fold change |
| --- | --- |
| RRIRFRPPRLPRPRPRPIKNPRP | -0.514 |
| RRIRCRPPRLPRPRPRPDCQPRP | -0.0895 |
| RRIRFRPPRLPRPRPRPCCTPRP | -0.337 |
| RRIRTRPPRLPRPRPRPTQGPRP | 0.358 |
| RRIRDRPPRLPRPRPRPWSMPRP | -0.0018 |
| RRIRCRPPRLPRPRPRPAELPRP | 0.0853 |
| RRIRMRPPRLPRPRPRPSMKPRP | 0.0872 |
| RRIRSRPPRLPRPRPRPFLFPRP | -0.329 |
| RRIRNRPPRLPRPRPRPNYDPRP | -0.222 |
| RRIRIRPPRLPRPRPRPTFTPRP | -0.373 |
| RRIRYRPPRLPRPRPRPAKDPRP | -0.151 |
| RRIRSRPPRLPRPRPRPIPCPRP | -0.297 |
| RRIRGRPPRLPRPRPRPELNPRP | 0.724 |
| RRIRRRPPRLPRPRPRPRYIPRP | -0.12 |
| RRIRERPPRLPRPRPRPMLPPRP | -0.397 |
| RRIRHRPPRLPRPRPRPWMNPRP | -0.0538 |
| RRIRLRPPRLPRPRPRPEQCPRP | -0.0243 |
| RRIRMRPPRLPRPRPRPFKVPRP | -0.111 |
| RRIRHRPPRLPRPRPRPHCNPRP | -0.158 |
| RRIRKRPPRLPRPRPRPGKMPRP | -0.0991 |
| RRIRPRPPRLPRPRPRPVEPPRP | 0.352 |
| RRIRYRPPRLPRPRPRPMKLPRP | -0.58 |
| RRIRKRPPRLPRPRPRPCYDPRP | -0.0387 |
| RRIRKRPPRLPRPRPRPWHCPRP | 0.0258 |
| RRIRARPPRLPRPRPRPFSSPRP | -0.159 |

| Sequence | shrunken log2 fold change |
| --- | --- |
| RRIRPRPPRLPRPRPRPWIFPRP | -0.0541 |
| RRIRGRPPRLPRPRPRPHKIPRP | 0.11 |
| RRIRQRPPRLPRPRPRPSYRPRP | -0.0524 |
| RRIRMRPPRLPRPRPRPMAVPRP | -0.00104 |
| RRIRIRPPRLPRPRPRPECNPRP | -0.324 |
| RRIRVRPPRLPRPRPRPNVFPRP | 0.0413 |
| RRIRCRPPRLPRPRPRPLNTPRP | -0.343 |
| RRIRIRPPRLPRPRPRPETEPRP | 0.0848 |
| RRIRARPPRLPRPRPRPTDKPRP | 0.391 |
| RRIRMRPPRLPRPRPRPRRWPRP | 0.881 |
| RRIRLRPPRLPRPRPRPTEFPRP | 0.0447 |
| RRIRKRPPRLPRPRPRPICIPRP | 0.163 |
| RRIRNRPPRLPRPRPRPNLKPRP | -0.33 |
| RRIRNRPPRLPRPRPRPCPIPRP | -0.223 |
| RRIRHRPPRLPRPRPRPKGEPRP | -0.0141 |
| RRIRRRPPRLPRPRPRPSPPPRP | 0.435 |
| RRIRFRPPRLPRPRPRPRSHPRP | -0.181 |
| RRIRYRPPRLPRPRPRPFQHPRP | -0.281 |
| RRIRCRPPRLPRPRPRPFSDPRP | -0.165 |
| RRIRRRPPRLPRPRPRPHAAPRP | 0.837 |
| RRIRERPPRLPRPRPRPAGKPRP | -0.0958 |
| RRIRWRPPRLPRPRPRPYVRPRP | -0.0178 |
| RRIRERPPRLPRPRPRPPVYPRP | 0.00394 |
| RRIRQRPPRLPRPRPRPMNFPRP | -0.01 |
| RRIRIRPPRLPRPRPRPGEAPRP | -0.0281 |
